Reference: patent publication US20220106400A1 (Bristol-Myers Squibb, published 2022)
Where two headings read alike, the source gives them in different places. Each block holds one binder with its values, some of them ahead of it.

Assays:
[1] = biological target: T1, human CD73 on human tumor cell lines (human, UniProt P21589 27-549); assay: cell-based or functional assay
T1 sequence (looked up): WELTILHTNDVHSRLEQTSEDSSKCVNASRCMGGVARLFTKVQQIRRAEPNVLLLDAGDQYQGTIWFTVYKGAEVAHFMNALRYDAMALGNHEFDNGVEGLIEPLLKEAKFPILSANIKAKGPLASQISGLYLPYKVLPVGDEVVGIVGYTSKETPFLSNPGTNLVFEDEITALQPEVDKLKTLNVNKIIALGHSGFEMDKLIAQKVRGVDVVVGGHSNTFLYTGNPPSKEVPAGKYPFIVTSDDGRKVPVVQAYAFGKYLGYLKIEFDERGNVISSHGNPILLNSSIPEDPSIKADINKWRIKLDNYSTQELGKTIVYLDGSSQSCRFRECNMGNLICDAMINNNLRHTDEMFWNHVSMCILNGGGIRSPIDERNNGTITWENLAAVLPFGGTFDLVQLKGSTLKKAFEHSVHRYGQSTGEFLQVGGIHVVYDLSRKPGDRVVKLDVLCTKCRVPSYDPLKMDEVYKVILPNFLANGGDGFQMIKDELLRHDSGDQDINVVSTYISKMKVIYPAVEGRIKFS

[2] = biological target: T1, human CD73 on human tumor cell lines; assay: cell-based or functional assay; remark: listed apart in the source

B1: CD73.4-IgG2.5G1-KH (antibody)
heavy: QVQLVESGGGVVQPGRSLRLSCAASGFTFSNYGMHWVRQAPGKGLEWVAVILYDGSNKYYPDSVKGRFTISRDNSKNTLYLQMNSLRAEDTAVYYCARGGSSWYPDSFDIWGQGTMVTVSSASTKGPSVFPLAPSSRSTSESTAALGCLVKDYFPEPVTVSWNSGALTSGVHTFPAVLQSSGLYSLSSVVTVPSSNFGTQTYTCNVDHKPSNTKVDKTVERKCCVECPPCPAPPVAGPSVFLFPPKPKDTLMISRTPEVTCVVVDVSHEDPEVKFNWYVDGVEVHNAKTKPREEQYNSTYRVVSVLTVLHQDWLNGKEYKCKVSNKALPAPIEKTISKAKGQPREPQVYTLPPSREEMTKNQVSLTCLVKGFYPSDIAVEWESNGQPENNYKTTPPVLDSDGSFFLYSKLTVDKSRWQQGNVFSCSVMHEALHNHYTQKSLSLSPGK
light: not shown
notes: also called mAb-CD73.4-IgG2.5G1-KH; CD73.4-Vh-hHC-IgG2.5G1-KH
T1/2 internalization, Calu6 [1]: 17 min
T1/2 internalization, NCI-H292 [1]: 15.4 min
Ymax internalization, Calu6 [1]: 76%
Ymax internalization, NCI-H292 [1]: 90.8%

B3: CD73.4-IgG2.3G1-KH (antibody)
heavy: QVQLVESGGGVVQPGRSLRLSCAASGFTFSNYGMHWVRQAPGKGLEWVAVILYDGSNKYYPDSVKGRFTISRDNSKNTLYLQMNSLRAEDTAVYYCARGGSSWYPDSFDIWGQGTMVTVSSASTKGPSVFPLAPCSRSTSESTAALGCLVKDYFPEPVTVSWNSGALTSGVHTFPAVLQSSGLYSLSSVVTVPSSNFGTQTYTCNVDHKPSNTKVDKTVERKSCVECPPCPAPPVAGPSVFLFPPKPKDTLMISRTPEVTCVVVDVSHEDPEVKFNWYVDGVEVHNAKTKPREEQYNSTYRVVSVLTVLHQDWLNGKEYKCKVSNKALPAPIEKTISKAKGQPREPQVYTLPPSREEMTKNQVSLTCLVKGFYPSDIAVEWESNGQPENNYKTTPPVLDSDGSFFLYSKLTVDKSRWQQGNVFSCSVMHEALHNHYTQKSLSLSPGK
light: not shown
notes: also called mAb-CD73.4-IgG2.3G1-KH; CD73.4-Vh-hHC-IgG2.3G1-KH
T1/2 internalization, Calu6 [1]: 23.8 min
T1/2 internalization, NCI-H292 [1]: 16.8 min
Ymax internalization, Calu6 [1]: 81.6%
Ymax internalization, NCI-H292 [1]: 91.6%

The remaining lines, values ahead:

T1/2 internalization, Calu6 [2]: 34 min
T1/2 internalization, NCI-H292 [2]: 15.8 min
T1/2 internalization, NCI-H1437 [2]: 19 min
T1/2 internalization, NCI-H1437 (no wash) [2]: 20.5 min
T1/2 internalization, SNU-C1 [2]: 29.7 min
T1/2 internalization, SNU-C1 (no wash) [2]: 61.5 min
Ymax internalization, Calu6 [2]: 76.8%
Ymax internalization, NCI-H292 [2]: 77.6%
T1/2 internalization, Calu6 [1]: 21 min
T1/2 internalization, NCI-H292 [1]: 16.6 min
Ymax internalization, Calu6 [1]: 81%
Ymax internalization, NCI-H292 [1]: 90.3%
B2: CD73.4-IgG2-C219S-IgG1.1f (antibody)
heavy: QVQLVESGGGVVQPGRSLRLSCAASGFTFSNYGMHWVRQAPGKGLEWVAVILYDGSNKYYPDSVKGRFTISRDNSKNTLYLQMNSLRAEDTAVYYCARGGSSWYPDSFDIWGQGTMVTVSSASTKGPSVFPLAPCSRSTSESTAALGCLVKDYFPEPVTVSWNSGALTSGVHTFPAVLQSSGLYSLSSVVTVPSSNFGTQTYTCNVDHKPSNTKVDKTVERKSCVECPPCPAPPVAGPSVFLFPPKPKDTLMISRTPEVTCVVVDVSHEDPEVKFNWYVDGVEVHNAKTKPREEQYNSTYRVVSVLTVLHQDWLNGKEYKCKVSNKALPSSIEKTISKAKGQPREPQVYTLPPSREEMTKNQVSLTCLVKGFYPSDIAVEWESNGQPENNYKTTPPVLDSDGSFFLYSKLTVDKSRWQQGNVFSCSVMHEALHNHYTQKSLSLSPGK
light: not shown
notes: also called CD73.4-IgG2CS-IgG1.1f; CD73.4-IgG2.3G1.1f-KH

T1/2 internalization, Calu6 [1]: 20.9 min
T1/2 internalization, NCI-H292 [1]: 18.3 min
Ymax internalization, Calu6 [1]: 79%
Ymax internalization, NCI-H292 [1]: 89.6%
B4: CD73.4-IgG2.5 (antibody)
heavy: QVQLVESGGGVVQPGRSLRLSCAASGFTFSNYGMHWVRQAPGKGLEWVAVILYDGSNKYYPDSVKGRFTISRDNSKNTLYLQMNSLRAEDTAVYYCARGGSSWYPDSFDIWGQGTMVTVSSASTKGPSVFPLAPSSRSTSESTAALGCLVKDYFPEPVTVSWNSGALTSGVHTFPAVLQSSGLYSLSSVVTVPSSNFGTQTYTCNVDHKPSNTKVDKTVERKCCVECPPCPAPPVAGPSVFLFPPKPKDTLMISRTPEVTCVVVDVSHEDPEVQFNWYVDGVEVHNAKTKPREEQFNSTFRVVSVLTVVHQDWLNGKEYKCKVSNKGLPAPIEKTISKTKGQPREPQVYTLPPSREEMTKNQVSLTCLVKGFYPSDIAVEWESNGQPENNYKTTPPMLDSDGSFFLYSKLTVDKSRWQQGNVFSCSVMHEALHNHYTQKSLSLSPGK
light: not shown
notes: also called mAb-CD73.4-IgG2.5; CD73.4-Vh-hHC-IgG2.5
